Source: the supplement of paper PMC10567573

B1: FAM116A (parent)
chain: TVHEVDIFRCFCPVFLHSQMLWEL
B2: STX5 (parent)
chain: ESTIVELGSIFQQLAHMVKEQEET

Variants of: B1
Experiment: protein stability index of a GFP-peptide fusion (GPS, HEK-293T) (PSI 1-6); higher = more stable
Conditions: c terminus: a fixed tail appended
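Further: lentivirally expressed fusions sorted by FACS into six bins by GFP to DsRed ratio, PSI derived from sequencing read proportions per bin multiplied by bin number.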

Protein stability index: each site, then its substitutions
V14: K 2.41
C12: E 1.52 | M 2.97 | I 2.54 | F 2.77 | K 1.79 | R 3.5
W22: F 2.22 | G 3.08 | K 1.13 | R 3.65 | H 1.52 | M 3.69 | T 2.11
I7: R 1.94 | Y 3.48 | M 1.22 | C 2.28 | N 1.09 | T 2.49 | G 3.26
F15: D 1.44 | V 1.94 | I 3.86 | C 1.76 | R 4.41 | K 2.7 | Y 3.31 | H 2.83
H3: L 2.85 | W 3.13 | E 1.82 | D 2.26 | Y 3.37 | N 3.08 | G 3.96 | K 2.14 | P 3.24 | T 1.85 | F 2.37
V5: Y 2.28 | K 1.93 | N 1.84 | W 2.47 | T 3.3 | S 2.17 | R 4.06
F8: W 3.88 | V 2.4 | K 2.31 | G 1.07 | P 2.36 | C 2.96 | L 3.07 | N 2.05 | A 2.53 | H 1 | M 3.18 | R 1.45 | Y 2.89
R9: T 1.99 | A 2.82 | P 1.77 | Q 3.69 | S 3.12 | H 2.19 | D 2.96 | F 2.13 | E 4.78
M20: N 3.79 | P 1.4 | L 3.06 | I 3.16 | F 2.05 | K 1.68 | Y 3.21 | Q 2.97 | V 2.62
S18: T 3.1 | F 2.77 | N 2.99 | D 2.15 | L 2.89 | W 2.85 | Y 4.23 | E 1.56 | Q 2.17 | G 2.83
Q19: C 2.22 | I 1.82 | A 3.23 | T 1.66 | W 2.73 | P 4.4 | S 2.74
H17: P 2.86 | R 2.65 | M 3.23 | S 3.21
L16: N 3.13 | E 1.69 | G 2.97 | R 3.17 | P 2.89 | C 3.78
D6: Q 2.07 | W 3.69 | Y 2.19 | H 2.23 | N 3.02 | K 2.61 | A 4.47 | P 1.7 | I 2.2
L24: G 3.33 | Y 3.09 | Q 1.47 | C 4.01 | P 1.69 | S 2.18 | W 1.83
T1: D 4.17 | G 1.75 | R 3.09 | H 3.11 | Y 2.93 | M 1.98 | K 2.66 | Q 3.46 | I 1.4 | L 1.68 | P 1.67
L21: I 3.87 | T 3.12 | C 3.04 | Q 3.05 | R 1.77

Variants of: B2
Experiment: as above
Conditions: c terminus: a fixed tail appended

Protein stability index of substitutions, site by site:
T24: V 2.01 | H 2.42 | E 2.12 | L 1.5 | W 2.89 | C 1.62 | R 2.12 | P 2.77 | A 2.17 | G 1.97 | K 1.83 | F 1.6 | D 1.89 | Y 2.29 | Q 1.59 | N 2.88 | S 2 | I 1.78
E23: T 1.32 | K 1.48 | I 2.38 | H 2.11 | Q 2.5 | P 2.06 | R 1.77 | S 1.23 | L 1.42 | N 1.47 | V 3.06 | Y 1.2
